The target of experiment [1] is CXCR4^QTY-Fc (not stated | rabbit). The experiment is described as follows: graphene field-effect transistor array.
Experiment [2] shares this target. The experiment is described as follows: graphene field-effect transistor array. This is another data set of the same source.

Our source for the Kd values is article PMC10361598.

Where two headings read alike, the source gives them in different places.

In the case of “recombinant HIV coat glycoprotein gp_(41–120)”, the Kd in experiment [1] amounted to 5.8 nM; in experiment [2] it was 19.1 nM.

Broadly, the Kd is the constant that tells how readily two partners part at equilibrium.
